# In publication PMC4352707:
# Molecular target: Cry1 (UniProt P97784)
# Assay: co-IP, immunoblot
# Details: reference: wild-type Hausp; sites S18
substance,measurement,value
"Hausp (Usp7), Hausp-V5 (from UniProt Q93009) Hausp S18A",binding against the reference,stronger
